Test results published in paper doi:10.1101/2025.06.10.658772 (bioRxiv, 2025).

Assays:
[1] = target: T1, C-terminally large NanoLuc fragment (LgBiT)-fused Dr-GPR25 (zebrafish (Danio rerio), UniProt A0AC58GT18 1-377); experiment: cell-based or functional assay
T1 sequence: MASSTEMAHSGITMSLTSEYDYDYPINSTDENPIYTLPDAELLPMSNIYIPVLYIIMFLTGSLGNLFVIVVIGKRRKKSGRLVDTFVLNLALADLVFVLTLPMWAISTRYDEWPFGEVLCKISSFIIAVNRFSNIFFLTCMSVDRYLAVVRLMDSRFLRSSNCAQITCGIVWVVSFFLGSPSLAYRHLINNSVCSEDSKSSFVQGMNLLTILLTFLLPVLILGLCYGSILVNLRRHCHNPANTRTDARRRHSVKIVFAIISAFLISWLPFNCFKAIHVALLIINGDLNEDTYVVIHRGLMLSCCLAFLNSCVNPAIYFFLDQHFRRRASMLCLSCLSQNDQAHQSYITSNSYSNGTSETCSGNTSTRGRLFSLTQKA

[2] = target: T2, C-terminally LgBiT-fused Lc-GPR25 (coelacanth (Latimeria chalumnae), UniProt H3AQL3 1-365); experiment: cell-based or functional assay
T2 sequence: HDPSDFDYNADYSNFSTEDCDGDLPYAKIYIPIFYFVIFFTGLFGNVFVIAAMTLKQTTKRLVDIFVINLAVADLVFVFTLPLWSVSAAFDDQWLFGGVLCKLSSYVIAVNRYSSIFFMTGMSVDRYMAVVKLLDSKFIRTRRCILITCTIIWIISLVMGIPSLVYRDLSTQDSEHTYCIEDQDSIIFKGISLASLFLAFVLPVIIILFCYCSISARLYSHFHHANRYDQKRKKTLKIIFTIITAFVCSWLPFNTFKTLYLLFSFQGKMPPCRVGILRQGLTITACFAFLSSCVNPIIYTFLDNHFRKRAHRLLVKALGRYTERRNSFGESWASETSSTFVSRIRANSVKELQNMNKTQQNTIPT

B1: N-terminally 6×His-tagged wild-type (WT) human CXCL17 (ligand)
chain: SSLNPGVARGHRDRGQASRRWLQEGGQECECKDWFLRAPRRKFMTVSGLPKKQCPCDHFKGNVKKTRHQRHHRKPNKHSRACQQFLKQCQLRSFALPL
NanoBiT-based β-arrestin recruitment (SmBiT-ARRB2), EC50 of the dose curve [1]: ~60 nM
NanoBiT-based β-arrestin recruitment (SmBiT-ARRB2), maximal effect [1]: ~5 fold over background
NanoBiT-based β-arrestin recruitment (SmBiT-ARRB2), EC50 of the dose curve [2]: ~300 nM
NanoBiT-based β-arrestin recruitment (SmBiT-ARRB2), maximal effect [2]: ~3 fold over background
